Assay results from patent US20240409647A1 (SINOMAB BIOSCIENCE, published 2024).

Legend:
[1] = molecular target: T1, human IL-17 receptor subunit D (human, UniProt Q8NFM7 28-299, limits assumed); test: ELISA, coated receptor; SM17 at 0.016 µg/mL; well 2
T1 construct: also called IL17RD; hIL 17RD
T1 sequence (looked up): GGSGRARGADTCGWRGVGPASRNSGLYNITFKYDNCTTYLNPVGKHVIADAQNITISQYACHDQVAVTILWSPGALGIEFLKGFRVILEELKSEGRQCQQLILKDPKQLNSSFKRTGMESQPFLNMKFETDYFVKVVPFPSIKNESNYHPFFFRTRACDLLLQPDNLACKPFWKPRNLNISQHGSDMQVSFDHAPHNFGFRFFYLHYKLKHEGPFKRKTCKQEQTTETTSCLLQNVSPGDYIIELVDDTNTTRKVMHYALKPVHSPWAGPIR

[2] = molecular target: T2, human IL-17 receptor subunit A (human, UniProt Q96F46 33-320); test: as above
T2 construct: also called IL17RA; hIL17RA

[3] = molecular target: T3, human IL-17 receptor subunit C (human, UniProt Q8NAC3-2 21-467, limits assumed); test: as above
T3 construct: also called IL17RC; hIL17RC
T3 sequence (looked up): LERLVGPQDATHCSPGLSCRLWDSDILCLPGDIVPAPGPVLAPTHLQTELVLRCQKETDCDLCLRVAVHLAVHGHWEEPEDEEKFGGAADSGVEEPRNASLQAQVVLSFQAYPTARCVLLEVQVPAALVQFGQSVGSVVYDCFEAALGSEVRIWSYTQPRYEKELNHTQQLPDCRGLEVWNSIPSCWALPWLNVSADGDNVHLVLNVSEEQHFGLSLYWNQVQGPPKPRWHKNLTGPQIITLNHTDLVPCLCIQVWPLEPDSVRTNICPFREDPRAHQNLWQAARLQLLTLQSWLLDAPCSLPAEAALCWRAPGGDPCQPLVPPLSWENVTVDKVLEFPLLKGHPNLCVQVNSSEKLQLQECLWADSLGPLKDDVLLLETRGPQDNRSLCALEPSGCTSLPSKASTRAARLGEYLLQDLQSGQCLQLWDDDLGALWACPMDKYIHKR

[4] = molecular target: T4, human IL-17 receptor subunit E (human, UniProt Q8NFR9 24-454, limits assumed); test: as above
T4 construct: also called hIL17RE
T4 sequence (looked up): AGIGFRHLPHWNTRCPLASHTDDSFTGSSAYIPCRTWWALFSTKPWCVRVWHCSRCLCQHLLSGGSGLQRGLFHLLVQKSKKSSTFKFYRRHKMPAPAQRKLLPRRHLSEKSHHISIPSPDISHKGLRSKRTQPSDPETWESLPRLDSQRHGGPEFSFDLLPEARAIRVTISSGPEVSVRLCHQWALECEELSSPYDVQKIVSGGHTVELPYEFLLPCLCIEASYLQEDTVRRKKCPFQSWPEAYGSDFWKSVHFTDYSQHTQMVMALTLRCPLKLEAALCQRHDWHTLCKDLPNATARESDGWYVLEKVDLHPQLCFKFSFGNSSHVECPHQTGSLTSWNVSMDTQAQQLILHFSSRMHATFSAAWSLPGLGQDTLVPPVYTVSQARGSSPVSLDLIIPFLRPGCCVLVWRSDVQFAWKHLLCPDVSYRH

[5] = molecular target: T5, human IL-17RB protein (recombinant, R&D systems) (human); test: as above
T5 construct: Bought protein; also called hIL17RB
T5 sequence (Q9NRM6 whole entry, looked up): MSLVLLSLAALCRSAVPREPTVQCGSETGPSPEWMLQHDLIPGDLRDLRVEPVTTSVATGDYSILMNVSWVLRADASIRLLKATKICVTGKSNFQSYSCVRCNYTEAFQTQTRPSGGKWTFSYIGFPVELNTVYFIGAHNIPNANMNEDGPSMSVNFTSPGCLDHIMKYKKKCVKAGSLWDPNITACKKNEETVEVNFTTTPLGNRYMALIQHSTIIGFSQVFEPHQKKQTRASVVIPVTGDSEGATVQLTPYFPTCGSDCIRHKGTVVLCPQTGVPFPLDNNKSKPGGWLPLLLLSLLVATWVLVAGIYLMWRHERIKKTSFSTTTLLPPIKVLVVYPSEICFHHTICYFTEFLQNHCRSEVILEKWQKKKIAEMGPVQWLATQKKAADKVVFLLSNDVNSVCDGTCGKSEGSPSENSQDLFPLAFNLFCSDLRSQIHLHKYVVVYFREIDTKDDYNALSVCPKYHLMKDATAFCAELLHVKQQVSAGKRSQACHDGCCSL

[6] = molecular target: T1, human IL-17 receptor subunit D; test: ELISA, coated receptor; SM17 at 0.00064 µg/mL; well 1
[7] = molecular target: T2, human IL-17 receptor subunit A; test: as above
[8] = molecular target: T3, human IL-17 receptor subunit C; test: as above
[9] = molecular target: T4, human IL-17 receptor subunit E; test: as above
[10] = molecular target: T5, human IL-17RB protein (recombinant, R&D …); test: as above
[11] = molecular target: T6, cynomolgus monkey IL-17RB protein (recombinant, R&D systems) (cynomolgus monkey, UniProt A0A2K5TUK1 18-289); test: BLI (Octet RED96), SM17 captured via anti-human Fab CH1, IL17RB in solution; trial 1
T6 construct: also called cynomolgus IL17RB; Cyno-IL17RB
T6 sequence: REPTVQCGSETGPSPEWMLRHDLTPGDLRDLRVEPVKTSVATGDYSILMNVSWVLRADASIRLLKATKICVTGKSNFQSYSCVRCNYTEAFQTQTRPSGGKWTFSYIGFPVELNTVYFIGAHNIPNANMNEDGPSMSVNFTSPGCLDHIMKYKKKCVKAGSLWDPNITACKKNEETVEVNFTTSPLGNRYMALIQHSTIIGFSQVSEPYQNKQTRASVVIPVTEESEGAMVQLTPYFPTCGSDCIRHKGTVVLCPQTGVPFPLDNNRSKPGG
From the text: Irrelevant antibody (SM03, anti-human CD22 chimeric IgG1 antibody, SinoMab BioScience Limited) was used as the control reference.

B1: SM17 (antibody, human IgG4 S228P, kappa, V domains shown)
VH: QVQLVQSGAEVKKPGASVKVSCKASGYTFISYWMNWVRQAPGQGLEWMGRIDPYDSEIQYNQKFKDRVTMTRDTSISTAYMELSRLRSDDTAVYYCARSGGFDWFAYWGQGTLVTVSS
VL: DIQMTQSPSSLSASVGDRVTITCRASENINSNLAWYQQKPGKAPKLLLYDVTNLADGVPSRFSGSGSGTDYTLTISSLQPEDFATYYCQHFWGPPYTFGGGTKVEIKR
notes: other paragraphs and claim 15 call the same entries VH and VL; also called humanized anti-IL17RB monoclonal antibody
Q: How did the “OD 450 nm Absorption” value [1] turn out when B1 was run?
A: 0.02 OD450

Q: What about the “OD 450 nm Absorption” value [2] of the same binder?
A: -0.04 OD450

Q: And the “OD 450 nm Absorption” value [3]?
A: 0.02 OD450

Q: And the “OD 450 nm Absorption” value [4]?
A: -0.04 OD450

Q: And the “OD 450 nm Absorption” value [5]?
A: 0.3 OD450

Q: And the “OD 450 nm Absorption” value [6]?
A: 0.08 OD450

Q: What about the “OD 450 nm Absorption” value [7] of the same binder?
A: 0 OD450

Q: And the “OD 450 nm Absorption” value [8]?
A: 0.13 OD450

Q: What about the “OD 450 nm Absorption” value [9] of the same binder?
A: 0.09 OD450

Q: What about the “OD 450 nm Absorption” value [10] of the same binder?
A: 0.13 OD450

Q: And the Kd [11]?
A: 0.852 nM

Q: And the koff [11]?
A: 2.73e-05 s⁻¹

Q: What about the kon [11] of the same binder?
A: 32100 M⁻¹ s⁻¹
